Measurements from the supplement of paper PMC7877785.
± gives the uncertainty stated by the source.

Test: self-splicing fitness, log relative to wild type (ln ratio); higher = more splicing; Tetrahymena group I intron in knt gene, E. coli kanamycin selection, DiMSum; sequences stand for … in CUCUCU…GGAGGGAAAAGUUAUCAGGCAUGCACCUGGUAGCUAGUCUUUAAACCAAUAGAUUGCAUCGGUUUAAAAGGCAAGACCGUCAAAUUGCGGGAAAGGGGUCAACAGCCGUUCAGUACCAAGUCUCAGGGGAAACUUUGAGAUGGCCUUGCAAAGGGUAUGGUAAUAAGCUGACGGACAUGGUCCUAACCACGCAGCCAAGUCCUAAGUCAACAGAUCUUCUGUUGAUAUGGAUGCAGUUCACAGACUAAAUGUCGGUCGGGGAAGAUGUAUUCUUCUCAUAAGAUAUAGUCGGACCUCUCCUUAAUGGGAGCUAGCGGAUGAAGUGAUGCAACACUGGAGCCGCUGGGAACUAAUUUGUAUGCGAAAGUAUAUUGAUUAGUUUUGGAGUACUCGUGGUCG
Summary of the method: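 Fitness was computed with DiMSum as the error-weighted combination of replicate fold changes, kanamycin versus none, each normalised to wild type. The library randomised all eight intron nucleotides of the P1ex region, with the intron placed in the knt kanamycin-resistance gene on pET-22b(+) in E. coli BL21(DE3). Six replicate transformations were grown overnight at 37°C or 30°C on LB agar with or without 25 μg/mL kanamycin, plus 100 μg/mL carbenicillin, 50 μM IPTG and 0.2% rhamnose. Pooled colonies were amplicon-sequenced on an Illumina HiSeq 2500.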

Row | Sequence | self-splicing fitness (ln) (30 °C) | self-splicing fitness (ln) (37 °C)
1 | AGUAAGCAAUAUUACGAUCU | 0.14 ± 0.15 | -0.333 ± 0.14
2 | AACCAGCAAUAUUACGCACU | 0.473 ± 0.074 | 0.0602 ± 0.078
3 | GAGCAGCAAUAUUACGUAGA | -2.24 ± 0.1 | -1.03 ± 0.13
4 | AGUGAGCAAUAUUACGUUGA | -2.51 ± 0.13 | -2.75 ± 0.2
5 | ACUGAGCAAUAUUACGGGGC | -4.03 ± 0.33 | -1.57 ± 0.22
6 | UACUAGCAAUAUUACGCUCG | -0.908 ± 0.13 | 0.0226 ± 0.15
7 | CAUCAGCAAUAUUACGAGGG | -2.04 ± 0.13 | -0.928 ± 0.12
8 | CCGGAGCAAUAUUACGCUAA | -2.65 ± 0.26 | -2.96 ± 0.35
9 | AUGUAGCAAUAUUACGCUUG | -1.06 ± 0.14 | -0.51 ± 0.15
10 | CUGGAGCAAUAUUACGGCAG | -2.77 ± 0.15 | -1.94 ± 0.16
11 | GCGCAGCAAUAUUACGCUUC | -1.97 ± 0.24 | -0.419 ± 0.15
12 | GGGAAGCAAUAUUACGCCCG | – | 0.0331 ± 0.36
13 | GCAUAGCAAUAUUACGGCAA | -1.49 ± 0.18 | -0.271 ± 0.17
14 | GUGAAGCAAUAUUACGCGCC | -4.14 ± 0.33 | -2.69 ± 0.41
15 | GCUGAGCAAUAUUACGCUGA | -2.99 ± 0.2 | -1.15 ± 0.17
16 | CACUAGCAAUAUUACGAGUA | -1.34 ± 0.096 | -0.6 ± 0.076
17 | GUUAAGCAAUAUUACGACAA | -0.704 ± 0.29 | -1.12 ± 0.26
18 | GCACAGCAAUAUUACGGUUA | -0.902 ± 0.055 | -0.384 ± 0.059
19 | ACUCAGCAAUAUUACGCGGA | -2.79 ± 0.16 | -3.35 ± 0.27
20 | AUUUAGCAAUAUUACGUGCA | -1.05 ± 0.11 | -0.306 ± 0.16
21 | CGUGAGCAAUAUUACGAUUA | – | -2.93 ± 0.25
22 | ACCCAGCAAUAUUACGUUGA | -1.66 ± 0.073 | -1.03 ± 0.075
23 | GAGUAGCAAUAUUACGAUAA | -2.41 ± 0.25 | -1.18 ± 0.2
24 | CCGGAGCAAUAUUACGAAAU | -3.2 ± 0.27 | -0.842 ± 0.37
25 | UGAGAGCAAUAUUACGAAGA | -1.45 ± 0.29 | -2.35 ± 0.42

Row | Sequence | self-splicing fitness (ln) (30 °C) | self-splicing fitness (ln) (37 °C)
26 | UCGAAGCAAUAUUACGCUGA | -3.44 ± 0.33 | -2.31 ± 0.29
27 | GUCCAGCAAUAUUACGAAAG | -3.37 ± 0.21 | -0.318 ± 0.17
28 | CAAGAGCAAUAUUACGGAAG | -1.75 ± 0.13 | -1.31 ± 0.19
29 | ACUAAGCAAUAUUACGGGUA | -1.77 ± 0.11 | -0.856 ± 0.11
30 | CUGGAGCAAUAUUACGUACG | -0.531 ± 0.089 | 0.504 ± 0.12
31 | AACAAGCAAUAUUACGUGUC | -4.91 ± 0.21 | -2.96 ± 0.095
32 | ACACAGCAAUAUUACGAUCA | -1.39 ± 0.084 | -0.858 ± 0.095
33 | CUUGAGCAAUAUUACGUGCG | -2.22 ± 0.13 | -0.809 ± 0.14
34 | GCCCAGCAAUAUUACGCUGC | – | -1.55 ± 0.41
35 | CGAAAGCAAUAUUACGGUGU | -2.55 ± 0.088 | -1.66 ± 0.11
36 | ACACAGCAAUAUUACGAUGU | -3.46 ± 0.1 | -1.18 ± 0.08
37 | UUAAAGCAAUAUUACGCGUU | -2.44 ± 0.12 | -1.49 ± 0.13
38 | CAAGAGCAAUAUUACGUUUG | -2.75 ± 0.21 | -2.37 ± 0.24
39 | ACGGAGCAAUAUUACGCAUG | -2.65 ± 0.2 | -2.28 ± 0.23
40 | CUCUAGCAAUAUUACGACAA | – | -2.35 ± 0.28
41 | UGAAAGCAAUAUUACGUAAC | – | -1.29 ± 0.25
42 | CGGAAGCAAUAUUACGAUGG | -0.404 ± 0.096 | 0.233 ± 0.13
43 | GUAUAGCAAUAUUACGUUCU | -2.27 ± 0.13 | -0.863 ± 0.13
44 | CAAAAGCAAUAUUACGCCUU | -3.67 ± 0.17 | -0.986 ± 0.12
45 | AUAAAGCAAUAUUACGAGGU | -3.99 ± 0.16 | -1.9 ± 0.21
46 | AGAGAGCAAUAUUACGGGAC | – | -2.61 ± 0.44
47 | UAAGAGCAAUAUUACGCCCU | -3.1 ± 0.31 | -2.01 ± 0.41
48 | GAAAAGCAAUAUUACGUGAU | -2.38 ± 0.087 | -1.9 ± 0.11
49 | CUAUAGCAAUAUUACGAUCU | -3.99 ± 0.39 | -1.91 ± 0.33
50 | ACUUAGCAAUAUUACGGGCG | -0.769 ± 0.078 | -0.483 ± 0.085

Row | Sequence | self-splicing fitness (ln) (30 °C) | self-splicing fitness (ln) (37 °C)
51 | GUCGAGCAAUAUUACGAAUU | -3.05 ± 0.32 | -0.878 ± 0.19
52 | ACGAAGCAAUAUUACGGAAG | -2.54 ± 0.12 | -2.4 ± 0.19
53 | AUUUAGCAAUAUUACGGACC | -1.57 ± 0.2 | -1.29 ± 0.27
54 | CAAGAGCAAUAUUACGAUAG | -1.53 ± 0.11 | -0.239 ± 0.13
55 | AUCAAGCAAUAUUACGGGCG | -1.34 ± 0.06 | -0.467 ± 0.079
56 | ACCCAGCAAUAUUACGCUGC | -3.77 ± 0.26 | -2.88 ± 0.27
57 | CAACAGCAAUAUUACGGCUC | -1.38 ± 0.078 | -0.333 ± 0.098
58 | UACAAGCAAUAUUACGAUAU | -2.75 ± 0.15 | -1.66 ± 0.19
59 | UUAUAGCAAUAUUACGUGUA | -2.46 ± 0.18 | -1.73 ± 0.16
60 | CCUUAGCAAUAUUACGGAAG | -2.61 ± 0.14 | -1.13 ± 0.14
61 | GAUCAGCAAUAUUACGGUGC | -2.03 ± 0.13 | -0.734 ± 0.11
62 | CAGAAGCAAUAUUACGUUUC | -3.38 ± 0.29 | -2.12 ± 0.23
63 | GGGGAGCAAUAUUACGUGGC | -3.07 ± 0.48 | -1.12 ± 0.47
64 | GAUGAGCAAUAUUACGGUAC | -5.2 ± 0.36 | -2.2 ± 0.33
65 | CCAAAGCAAUAUUACGUGGU | -3.39 ± 0.098 | -3.29 ± 0.14
66 | GCAGAGCAAUAUUACGAUUG | -4.02 ± 0.28 | -2.95 ± 0.23
67 | GCCGAGCAAUAUUACGAGAG | -3.14 ± 0.3 | -0.44 ± 0.19
68 | AUUAAGCAAUAUUACGGCAU | -0.722 ± 0.076 | -0.458 ± 0.094
69 | GUCAAGCAAUAUUACGUACA | -3.13 ± 0.14 | -1.73 ± 0.098
70 | AACGAGCAAUAUUACGACUC | -1.14 ± 0.064 | -0.414 ± 0.081
71 | UCCUAGCAAUAUUACGUCUU | -4.03 ± 0.23 | -2.05 ± 0.14
72 | GGCUAGCAAUAUUACGCCUU | – | -0.73 ± 0.19
73 | GCCUAGCAAUAUUACGGCAG | -2.72 ± 0.19 | -2.18 ± 0.42
74 | UGCUAGCAAUAUUACGGUUA | -0.0068 ± 0.062 | -0.481 ± 0.068
75 | AAUAAGCAAUAUUACGCUUA | -3.19 ± 0.26 | -1.74 ± 0.22

Row | Sequence | self-splicing fitness (ln) (30 °C) | self-splicing fitness (ln) (37 °C)
76 | UUUGAGCAAUAUUACGUUCU | -3.55 ± 0.32 | -2.58 ± 0.25
77 | GUUGAGCAAUAUUACGGUCC | -2.05 ± 0.15 | -1.3 ± 0.19
78 | CUAAAGCAAUAUUACGAAAC | -3.29 ± 0.45 | -2.67 ± 0.41
79 | GGGCAGCAAUAUUACGCGUA | -0.501 ± 0.077 | -0.0324 ± 0.077
80 | GUGUAGCAAUAUUACGAUAA | -2.6 ± 0.19 | -0.508 ± 0.12
81 | GAUCAGCAAUAUUACGCACG | -0.77 ± 0.076 | 0.0829 ± 0.077
82 | CUGUAGCAAUAUUACGCGCA | -2.23 ± 0.39 | -2.52 ± 0.41
83 | CGAUAGCAAUAUUACGUCCC | -1.28 ± 0.23 | -0.717 ± 0.28
84 | UAAUAGCAAUAUUACGGAUG | -1.58 ± 0.08 | -0.737 ± 0.087
85 | GGGUAGCAAUAUUACGACAU | -0.113 ± 0.015 | 0.159 ± 0.034
86 | ACAUAGCAAUAUUACGGUGC | -3.84 ± 0.25 | -2.54 ± 0.21
87 | GUGGAGCAAUAUUACGCAAA | -2.28 ± 0.43 | -1.83 ± 0.25
88 | ACGGAGCAAUAUUACGAUCC | – | -1.94 ± 0.47
89 | ACUUAGCAAUAUUACGUGUG | -2.2 ± 0.09 | -1.06 ± 0.087
90 | UCCAAGCAAUAUUACGGCGC | -2.4 ± 0.14 | -2.5 ± 0.15
91 | AUACAGCAAUAUUACGGGAG | -3.35 ± 0.15 | -2.12 ± 0.13
92 | UAUCAGCAAUAUUACGUAGG | -2.1 ± 0.097 | -1.09 ± 0.088
93 | CUAUAGCAAUAUUACGAUUA | -3.05 ± 0.29 | -0.967 ± 0.19
94 | GAUGAGCAAUAUUACGGCCU | -2.54 ± 0.18 | -1.98 ± 0.23
95 | CCCAAGCAAUAUUACGUCAU | -2.95 ± 0.14 | -2.74 ± 0.13
96 | ACCUAGCAAUAUUACGUCGC | -2.66 ± 0.18 | -0.636 ± 0.15
97 | ACUCAGCAAUAUUACGAGCC | -1.32 ± 0.079 | -0.908 ± 0.11
